Assay results from patent US20220096653A1, “CONJUGATE COMPRISING LIGAND AND CEACAM5 ANTIBODY FAB FRAGMENT” (ASTELLAS PHARMA INC., priority 2019, published 2022).
Like-named read-outs stand apart in the source and are kept apart here.

Assays:
[1] = design: species or system mice (BALB/c nu/nu); conditions: mouse, in vivo
Protocol: A Gd-labeled conjugate of the conjugate containing a peptide linker produced in one of the above Examples was administered from the tail vein of tumor-bearing mice so that the protein mass was 0.02 mg (100 μL) per animal. As the tumor-bearing mice used in the present Example, mice (BALB/c nu/nu) that were in a tumor-bearing state brought about by transplanting human colorectal cancer cell line LS174T cells (ATCC(registered trademark); CL-188) at 2.0 to 5.0×10^6 cells/mouse subcutaneously on the back before administration of the sample were used. 24 hours after administration of the sample, the mice were sacrificed, the kidneys and the tumor were removed, and the amounts of Gd in the kidneys and in the tumor were measured using ICP-MS. The present test was carried out in 3 cases in each group, and the mean value of the 3 cases was calculated. The amount of Gd contained per kidney after administration was shown as a percentage of the amount of Gd administered (% of dose/tissue), and the amount of Gd contained per g of tumor tissue was shown as a percentage of the total amount of Gd administered (% of dose/g).

[2] = mouse, in vivo
Protocol: (§1) A Gd-labeled conjugate of the conjugate containing a peptide linker produced in one of the above Examples was administered from the tail vein of mice (BALB/c or BALB/c nu/nu) so that the protein mass was 0.02 mg (100 μL) per animal. After about 24 hours, the mice were sacrificed and the kidneys were removed, and the amount of Gd in the kidneys was measured using ICP-MS. The present test was carried out in 3 cases in each group, the mean value of the 3 cases was calculated, and the amount of Gd contained per kidney after administration was shown as a percentage (% of dose/tissue) of the total amount of Gd administered.
(§2) Based on the percentage of the control conjugate (% of dose/tissue), the proportion of decrease in the amount of Gd contained in the kidneys of each of the conjugates having a peptide linker was determined and shown in Table 28.

[3] = mouse, in vivo; remark: listed apart in the source
Protocol: as §1

[4] = Kidney accumulation evaluation test of Gd-labeled conjugates, normal mice (Example 4-1); conditions: for Proportion of decrease (amount of Gd contained in the kidneys): based on control conjugate Ex-No. 47, about 24 hours; for % of dose/tissue (amount of Gd contained per kidney): tail vein, 0.02 mg protein per animal, about 24 hours, ICP-MS, mean of 3 cases
Protocol: as §1, §2

[5] = target: human cancer-specific MUC1 peptide (PTL 1) (human); test: ELISA on immobilised human cancer-specific MUC1 peptide, 4-parameter fit, duplicate (Example 6-2)

B1: [Gd/DOTA-NH—(CH2CH2O)3—CH2—C(═O)—NH—CH2-(1,3-Ph)-C(═O)-Met-Gly-Lys*-Z2(#N)]p-Fab^2 (conjugate)
heavy: EVQLVESGGGLVQPGGSLRLSCAASGFNIRDTYMHWVRQAPGKGLEWVARIDPANGNSRYVPKFQGRFTISADTSRNTAYLQMNSLRAEDTAVYYCAPFGYYVSDYAMAYWGQGTLVTVSSASTKGPSVFPLAPSSKSTSGGTAALGCLVKDYFPEPVTVSWNSGALTSGVHTFPAVLQSSGLYSLSSVVTVPSSSLGTQTYICNVNHKPSNTKVDKKVEPKSCD
light: DIQLTQSPSSLSASVGDRVTITCRAGESVDIFGVGFLHWYQQKPGKAPKLLIYRASNLESGIPSRFSGSGSRTDFTLTISSLQPEDFATYYCQQTNEDPYTFGQGTKVEIKRTVAAPSVFIFPPSDEQLKSGTASVVCLLNNFYPREAKVQWKVDNALQSGNSQESVTEQDSKDSTYSLSSTLTLSKADYEKHKVYACEVTHQGLSSPVTKSFNRGEC
Renal residual amount (tumor-bearing mice) % of dose/tissue [1]: 8.40 % of dose/tissue
Renal residual amount (tumor-bearing mice) Proportion of decrease [1]: 67.48%
% of dose/tissue (amount of Gd contained per kidney) [2]: 6.8 % of dose/tissue
Proportion of decrease (amount of Gd contained in the kidneys) [2]: 78.0%

B2: [Gd/DOTA-NH—CH2-(1,3-Ph)-C(═O)-Met-Gly-Lys*-Z2(#S)]p-Fab^2 (conjugate)
heavy: EVQLVESGGGLVQPGGSLRLSCAASGFNIRDTYMHWVRQAPGKGLEWVARIDPANGNSRYVPKFQGRFTISADTSRNTAYLQMNSLRAEDTAVYYCAPFGYYVSDYAMAYWGQGTLVTVSSASTKGPSVFPLAPSSKSTSGGTAALGCLVKDYFPEPVTVSWNSGALTSGVHTFPAVLQSSGLYSLSSVVTVPSSSLGTQTYICNVNHKPSNTKVDKKVEPKSCD
light: DIQLTQSPSSLSASVGDRVTITCRAGESVDIFGVGFLHWYQQKPGKAPKLLIYRASNLESGIPSRFSGSGSRTDFTLTISSLQPEDFATYYCQQTNEDPYTFGQGTKVEIKRTVAAPSVFIFPPSDEQLKSGTASVVCLLNNFYPREAKVQWKVDNALQSGNSQESVTEQDSKDSTYSLSSTLTLSKADYEKHKVYACEVTHQGLSSPVTKSFNRGEC
Renal residual amount (tumor-bearing mice) % of dose/tissue [1]: 12.33 % of dose/tissue
Renal residual amount (tumor-bearing mice) Proportion of decrease [1]: 52.26%
% of dose/tissue (amount of Gd contained per kidney) [2]: 12.9 % of dose/tissue
Proportion of decrease (amount of Gd contained in the kidneys) [2]: 58.3%

B3: [Gd/DOTA-NH—CH2-(1,4-Ph)-NH—C(═O)-Met-Ile-NH—(CH2)2-(A-4 and/or A-5)]p-Fab^2 (conjugate)
heavy: EVQLVESGGGLVQPGGSLRLSCAASGFNIRDTYMHWVRQAPGKGLEWVARIDPANGNSRYVPKFQGRFTISADTSRNTAYLQMNSLRAEDTAVYYCAPFGYYVSDYAMAYWGQGTLVTVSSASTKGPSVFPLAPSSKSTSGGTAALGCLVKDYFPEPVTVSWNSGALTSGVHTFPAVLQSSGLYSLSSVVTVPSSSLGTQTYICNVNHKPSNTKVDKKVEPKSCD
light: DIQLTQSPSSLSASVGDRVTITCRAGESVDIFGVGFLHWYQQKPGKAPKLLIYRASNLESGIPSRFSGSGSRTDFTLTISSLQPEDFATYYCQQTNEDPYTFGQGTKVEIKRTVAAPSVFIFPPSDEQLKSGTASVVCLLNNFYPREAKVQWKVDNALQSGNSQESVTEQDSKDSTYSLSSTLTLSKADYEKHKVYACEVTHQGLSSPVTKSFNRGEC
Renal residual amount (normal mice) % of dose/tissue [3]: 2.43 % of dose/tissue
Renal residual amount (normal mice) Proportion of decrease [3]: 92.15%

B4: [Gd/DOTA-NH—CH2-(1,4-Ph)-NH—C(═O)-Met-Ile-NH—(CH2)2-(A-3)]p-Fab^2 (conjugate)
heavy: EVQLVESGGGLVQPGGSLRLSCAASGFNIRDTYMHWVRQAPGKGLEWVARIDPANGNSRYVPKFQGRFTISADTSRNTAYLQMNSLRAEDTAVYYCAPFGYYVSDYAMAYWGQGTLVTVSSASTKGPSVFPLAPSSKSTSGGTAALGCLVKDYFPEPVTVSWNSGALTSGVHTFPAVLQSSGLYSLSSVVTVPSSSLGTQTYICNVNHKPSNTKVDKKVEPKSCD
light: DIQLTQSPSSLSASVGDRVTITCRAGESVDIFGVGFLHWYQQKPGKAPKLLIYRASNLESGIPSRFSGSGSRTDFTLTISSLQPEDFATYYCQQTNEDPYTFGQGTKVEIKRTVAAPSVFIFPPSDEQLKSGTASVVCLLNNFYPREAKVQWKVDNALQSGNSQESVTEQDSKDSTYSLSSTLTLSKADYEKHKVYACEVTHQGLSSPVTKSFNRGEC
Renal residual amount (normal mice) % of dose/tissue [3]: 1.43 % of dose/tissue
Renal residual amount (normal mice) Proportion of decrease [3]: 95.38%

B5: [Gd/DOTA-NH—(CH2CH2O)3—CH2—C(═O)—NH—CH2-(1,3-Ph)-C(═O)-Met-Gly-Lys*-Z2(#S)]p-Fab^2 (conjugate)
heavy: EVQLVESGGGLVQPGGSLRLSCAASGFNIRDTYMHWVRQAPGKGLEWVARIDPANGNSRYVPKFQGRFTISADTSRNTAYLQMNSLRAEDTAVYYCAPFGYYVSDYAMAYWGQGTLVTVSSASTKGPSVFPLAPSSKSTSGGTAALGCLVKDYFPEPVTVSWNSGALTSGVHTFPAVLQSSGLYSLSSVVTVPSSSLGTQTYICNVNHKPSNTKVDKKVEPKSCD
light: DIQLTQSPSSLSASVGDRVTITCRAGESVDIFGVGFLHWYQQKPGKAPKLLIYRASNLESGIPSRFSGSGSRTDFTLTISSLQPEDFATYYCQQTNEDPYTFGQGTKVEIKRTVAAPSVFIFPPSDEQLKSGTASVVCLLNNFYPREAKVQWKVDNALQSGNSQESVTEQDSKDSTYSLSSTLTLSKADYEKHKVYACEVTHQGLSSPVTKSFNRGEC
Renal residual amount (tumor-bearing mice) % of dose/tissue [1]: 9.40 % of dose/tissue
Renal residual amount (tumor-bearing mice) Proportion of decrease [1]: 63.61%
% of dose/tissue (amount of Gd contained per kidney) [2]: 7.0 % of dose/tissue
Proportion of decrease (amount of Gd contained in the kidneys) [2]: 77.4%

B6: [Gd/4arm-DOTA-CH2-(1,4-Ph)-NH—C(═S)—NH—CH2-(1,3-Ph)-C(═O)-Met-Gly-Lys*-Z2(#S)]p-Fab^2 (conjugate)
heavy: EVQLVESGGGLVQPGGSLRLSCAASGFNIRDTYMHWVRQAPGKGLEWVARIDPANGNSRYVPKFQGRFTISADTSRNTAYLQMNSLRAEDTAVYYCAPFGYYVSDYAMAYWGQGTLVTVSSASTKGPSVFPLAPSSKSTSGGTAALGCLVKDYFPEPVTVSWNSGALTSGVHTFPAVLQSSGLYSLSSVVTVPSSSLGTQTYICNVNHKPSNTKVDKKVEPKSCD
light: DIQLTQSPSSLSASVGDRVTITCRAGESVDIFGVGFLHWYQQKPGKAPKLLIYRASNLESGIPSRFSGSGSRTDFTLTISSLQPEDFATYYCQQTNEDPYTFGQGTKVEIKRTVAAPSVFIFPPSDEQLKSGTASVVCLLNNFYPREAKVQWKVDNALQSGNSQESVTEQDSKDSTYSLSSTLTLSKADYEKHKVYACEVTHQGLSSPVTKSFNRGEC
Proportion of decrease (amount of Gd contained in the kidneys) [4]: 72.9%
% of dose/tissue (amount of Gd contained per kidney) [4]: 8.4 % of dose/tissue

B7: [Gd/4arm-DOTA-CH2-(1,4-Ph)-NH—C(═S)-Gly-Phe-Lys*-Z2(#N)]p-Fab^2 (conjugate)
heavy: EVQLVESGGGLVQPGGSLRLSCAASGFNIRDTYMHWVRQAPGKGLEWVARIDPANGNSRYVPKFQGRFTISADTSRNTAYLQMNSLRAEDTAVYYCAPFGYYVSDYAMAYWGQGTLVTVSSASTKGPSVFPLAPSSKSTSGGTAALGCLVKDYFPEPVTVSWNSGALTSGVHTFPAVLQSSGLYSLSSVVTVPSSSLGTQTYICNVNHKPSNTKVDKKVEPKSCD
light: DIQLTQSPSSLSASVGDRVTITCRAGESVDIFGVGFLHWYQQKPGKAPKLLIYRASNLESGIPSRFSGSGSRTDFTLTISSLQPEDFATYYCQQTNEDPYTFGQGTKVEIKRTVAAPSVFIFPPSDEQLKSGTASVVCLLNNFYPREAKVQWKVDNALQSGNSQESVTEQDSKDSTYSLSSTLTLSKADYEKHKVYACEVTHQGLSSPVTKSFNRGEC
Proportion of decrease (amount of Gd contained in the kidneys) [4]: 68.0%
% of dose/tissue (amount of Gd contained per kidney) [4]: 9.9 % of dose/tissue

B8: [Gd/DOTA-NH-CH2-(1,4-Ph)-NH-C(═O)-Met-Ile-NH-(CH2)2-Z1(#S)]p-Fab^5 (Fab, V domains shown)
VH: QVQLVQSGAEVKKPGASVKVSCKASGYTFTNYGLSWVRQAPGQGLEWMGENHPGSGIIYHNEKFRGRVTLTADRSTSTAYMELSSLRSEDTAVYYCARSSGTRGFDYWGQGTLVTVSS
VL: DVVMTQTPLSLSVTPGQPASISCRSSQSIVHSNGNTYLEWYLQKPGQSPQLLIYRVSNRFSGVPDRFSGSGSGTDFTLKISRVEAEDVGVYYCFQGSHGPWTFGQGTKLEIKR
modifications: labeling may sit on this chain; sites not stated; labeling portion (MW 1175) bound via 2-iminothiolane-treated amino groups of the Fab, sites and chain not stated; 1-3 per Fab by MS; Gln 1 pyroglutamic acid as Fab^5 is defined in paragraph 370
EC50 [5]: 0.09 nM

B9: Ex-No 110, conjugate of Fab^5 (structure given only as drawing CHEM-US-00167) (Fab, V domains shown)
VH: QVQLVQSGAEVKKPGASVKVSCKASGYTFTNYGLSWVRQAPGQGLEWMGENHPGSGIIYHNEKFRGRVTLTADRSTSTAYMELSSLRSEDTAVYYCARSSGTRGFDYWGQGTLVTVSS
VL: DVVMTQTPLSLSVTPGQPASISCRSSQSIVHSNGNTYLEWYLQKPGQSPQLLIYRVSNRFSGVPDRFSGSGSGTDFTLKISRVEAEDVGVYYCFQGSHGPWTFGQGTKLEIKR
modifications: labeling may sit on this chain; sites not stated; low molecular weight molecule (MW 1201) bound to the Fab, sites and chain not stated; 1-2 per Fab by MS; Gln 1 pyroglutamic acid as Fab^5 is defined in paragraph 370
EC50 [5]: 0.19 nM

B10: Ex-No 111, conjugate of Fab^5 (structure given only as drawing CHEM-US-00168) (Fab, V domains shown)
VH: QVQLVQSGAEVKKPGASVKVSCKASGYTFTNYGLSWVRQAPGQGLEWMGENHPGSGIIYHNEKFRGRVTLTADRSTSTAYMELSSLRSEDTAVYYCARSSGTRGFDYWGQGTLVTVSS
VL: DVVMTQTPLSLSVTPGQPASISCRSSQSIVHSNGNTYLEWYLQKPGQSPQLLIYRVSNRFSGVPDRFSGSGSGTDFTLKISRVEAEDVGVYYCFQGSHGPWTFGQGTKLEIKR
modifications: labeling may sit on this chain; sites not stated; low molecular weight molecule (MW 1391) bound to the Fab, sites and chain not stated; 1-2 per Fab by MS; Gln 1 pyroglutamic acid as Fab^5 is defined in paragraph 370
EC50 [5]: 0.16 nM

B11: Ex-No 109, conjugate of Fab^5 (structure given only as drawing CHEM-US-00166) (Fab, V domains shown)
VH: QVQLVQSGAEVKKPGASVKVSCKASGYTFTNYGLSWVRQAPGQGLEWMGENHPGSGIIYHNEKFRGRVTLTADRSTSTAYMELSSLRSEDTAVYYCARSSGTRGFDYWGQGTLVTVSS
VL: DVVMTQTPLSLSVTPGQPASISCRSSQSIVHSNGNTYLEWYLQKPGQSPQLLIYRVSNRFSGVPDRFSGSGSGTDFTLKISRVEAEDVGVYYCFQGSHGPWTFGQGTKLEIKR
modifications: labeling may sit on this chain; sites not stated; low molecular weight molecule (MW 1216) bound to the Fab, sites and chain not stated; 1-2 per Fab by MS; Gln 1 pyroglutamic acid as Fab^5 is defined in paragraph 370
EC50 [5]: 0.08 nM

B12: [Gd/DOTA-[2,5-(1,2,3,4-tetrahydroisoquinoline)]-C(═O)-Met-Gly-Lys*-C(═S)-NH-(1,4-Ph)-NH-C(═S)]p-Fab^5 (Fab, V domains shown)
VH: QVQLVQSGAEVKKPGASVKVSCKASGYTFTNYGLSWVRQAPGQGLEWMGENHPGSGIIYHNEKFRGRVTLTADRSTSTAYMELSSLRSEDTAVYYCARSSGTRGFDYWGQGTLVTVSS
VL: DVVMTQTPLSLSVTPGQPASISCRSSQSIVHSNGNTYLEWYLQKPGQSPQLLIYRVSNRFSGVPDRFSGSGSGTDFTLKISRVEAEDVGVYYCFQGSHGPWTFGQGTKLEIKR
modifications: labeling may sit on this chain; sites not stated; labeling portion (MW 1228) on amino groups of the Fab, sites and chain not stated; 1-2 per Fab by MS; Gln 1 pyroglutamic acid as Fab^5 is defined in paragraph 370
EC50 [5]: 0.19 nM
